Laboratory results as given in the domain aggregation screens of Martell et al. (2025).

Assay: soluble fraction after stress (log2 fold change); higher = more stays soluble; pooled small domains, quantitative proteomics
Settings: stress: 50 degC
Outline: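 Quantitative proteomics served as the high-throughput read-out for pooled custom libraries of small protein domains. Each was stressed at 50°C. Aggregation propensity is expressed as the base-two log fold change in soluble protein after stress. A higher value means a larger share of the protein remains in solution.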

| Sequence | soluble fraction (log2) |
| --- | --- |
| HMSASSDATRQRVLRAAEQLFGAKGVENVSLREMTTLAGVNLAAVNYHFGSKDALAEAVFEALSER | 0.41 |
| HMDAIDQDGNHMTFKRWGEQLQEAFQALEAYDTDKAKTILNELIKFPIDSDLNNALKGILSNIDEMMA | -0.447 |
| HMNQSEMIGSRLKEERLQQKLTLKQLSEKVGLSIGYLSQVERGYGTLSLSALKKLSSALGLEMSTFFD | -0.992 |
| HMSGFPTDAQIVREIRNILPTLENPTPRMVRKALENTFEVDMGESKTKKYINNIIITEYEKWSSVQSIRE | -0.534 |
| HMNSKSDDELLSKTTSLLIHAAKIDENYTDKEKEIIKKTLIQLGVKESKADQIMLTAEINEE | ≥ 0.62 |
| HMKYPVYLQLADLIERKINKNEYPLGSKIPSERELIDAFGISRMTVRKAIEVLIEKGLLTRQHGKGTYVSQ | -1.29 |
| HMTNSTGWSKSGGTQVTIREGETIYNLSRRYGVPAKSIMEANGIADATAVRAGQRISIPTYSY | 0.0505 |
| HMSTDDILSSITALRLASVQFQLGQFDPALDSLKLVKEQAWSGAKNILAGDIQLAKGDKEAAKASYQQAQQ | -0.38 |
| HMDNFDVVLTSPGDQKVQVIKAVRSITGLGLKEAKDLVDGAPNTVKEGVKKLDAEEMLKQLTEAGATGEL | 0.296 |
| HMSKHLWNKVLPKVTTANITNLINQAIRKGEWRMDNKGVVHIIWRYRGKIIEVTGYLKDKVFNVGNAWVR | -0.122 |
| HMAREFPGTIIKRGSRGPDVRWIQQHIGVKLVDGVFGRGTERAVKQFQSRRRLKADGIVGRQTWAAIHN | -0.999 |
| HMTDEEKENLREKMLEAGFPLLKQYGMTHTSVAKITQAAGIAVGTFYSFWKNKEAYMADLIGYHRR | -0.818 |
| HMGETPEILRDWEAAQNAVNDMLSKYAPGGYMGKIIYPLLTPLKERLEAGERTPDLYNAIVEAT | 0.0804 |
| HMQRLSRREIEVLHWIAEGKSDWQIGQILSISAKTVNYHTENLKRKFGVATRMQAVVSAIKQGAFVPGE | -4.43 |
| HMDLMSTNEKLLYTMRYLISKSLDGAITEEEIRRLDRLIIENSQARAYYVEYLQIHTHLRKLMQQNPELK | -1.97 |
| HMWGAYHDGQVVKFPKKVTVYVIDGQYKRPLANEFVLKFLNYKTSDIIIDKDGNLNNYKNGAVVEH | -2.69 |
| HMVLVSNYGEVVRKARERKGLDHGSLAMKISEKKSIITSVESGNMKPNEKLIKKLENFLNINLM | -1.33 |
| HMTKLTPLEVNLYAKKLANDPEFGSKHIEPGESFSQAEERLRVQLSQQEYVQKYSKYLKKLKASA | 0.0851 |
| HMTKEGVNISITADGVQLSTESPNRVSIFNVNGTKVWEGIAPANVSLQKGVYILQTANGNTKFV | 0.265 |
| HMIEMAGGYRKGDRVELHSLKGAAEHNGKQGTVVGPQGERVKVLLDDSDSKTLALKVTNLTKLESA | 0.112 |
| HMAAESWTEKSRALAAAGLVVMGRDAQTKIEELTNLAPLIEAANASNTRLLTSQSIDELLSIVPTEENL | 0.0724 |
| HMGRPQISDELRNAIIEVAKDNRDWGYIRIQGQLKYLGYRVSTATIGKVLKKAGLEPQPDRRRK | -0.264 |
| HMDSAQLARWAATILAQNGRKITPSTMNLFLERVGDDMENIRMELEKLISYTMGSEVVTAEDVKVITTVQ | -0.569 |
| HMYEDNERSLVPIVQNFLKEKKILLSNQSINLIVQRSGGDRINLYNELQKIESFSKNQKKIDIGDIIKLTN | -0.286 |
| HMSQNVQDVFLNHVRKSKNPVTVFLVNGVKLQGIITWFDNFSVLLRREGHTQLVYKHAISTVMPSGPIQLF | 0.0729 |

| Sequence | soluble fraction (log2) |
| --- | --- |
| HMGPNYYDILEIPTDASPSEITQAFRKKALEWHPDKNPNNLEEATSRFIEIVEAYRVLSSKDSKLQYDTG | 0.0242 |
| HMNPSKEFNMSDLLKAKMVGDVSAAKRREKAGALLHIGYGNAKTFLKKLNHFSISREEWDKVIAAMEEF | -0.743 |
| HMFRDFSETLLRKLQAAGGFLPFTDKTDAEAIAEHFQVSKKTFKRAVGTLYKQRRILIDDEGITLIG | -0.148 |
| HMRSNADALIGRTARVSQTIVENGFGRVALDGDDWKAQAADGSRIEEGQNVIVKDRDSIILTVEKE | 0.074 |
| HMVVYQRVHDEILQALKDNVYPVGTLLPPEPELERIYSVSRTTVRRAIAKLSEEGYVQVRQGYGTMVLKN | -0.576 |
| HMENFDNIFDQRLMPSLFIIRNINQAIENNNNNKFLLNSTISMKDKHWIEIHPHHLKLIISGYQT | -0.238 |
| HMNAVYPNPFVSEIYIGENNRSVEIYNLNGGLVYGMSQPSSRIDVSGLAAGSYILIKKDSSGHISSHKIMK | 0.0698 |
| HMGEDPYQMLGLTRQASDEEVRLAWRKLMRENHPDSLASRGVPQEFVKRATEQVAQINAAWDRIKRERG | 0.0386 |
| HMANKQLQEKLKNYISENGSLSSAAKAIGLSPATLSTYLKDKYEGNVANVETRLTEIFETVEAANNLL | -0.258 |
| HMPDDHFIRGYVTAVLEQVLKVPSIQVEVERGVVILRGDLPGEERQELLDAVSRIHGVARVEYIPL | -0.0295 |
| HMTSLTDDELSVVMLVREREISFDEITSETGFDAARLNSVLTMLKIKGIIDETTGKHYRISGGA | 0.146 |
| HMSRVKQERLNRFVEAFEAYFRSVHPGEIDVEYLKSDEFGDIFESILHRVMHTASEEKMHRFKKILLNEM | -2.13 |
| HMAYWVVKNNQVSLQINRSNYQITSTARALSNGNLGDEIDVKVLQSGVIKKAVVIGKGQVELLR | -1.89 |
| HMQENVIIYPNPTKSVIYLSEKVEFILYNILGEIIFIGDNNKIDLNSFDNGVYIFESGNVRTQIIK | 0.0489 |
| HMVRKIRARLVLQLRAEGLSGRAIAGSQGMSRKSVTAVLDAADRAGIGWDEIAERSEGEVYALLFPGRG | -1.34 |
| HMGMNSGQADFRGISLALSVDAEAEAQRLFTALADGGQVQMPLSKTFFSPAFGMVADRFGVGWMVVTN | 0.247 |
| HMKEVKPSDFFLSKLDEDHNLIEKFNALSSFKQKEFIEYIDSAKQEKTKHDRFEKIKPILLSNIGLNDKYR | 0.075 |
| HMQEVKVRLKPDYLGEVLIKVISDKGELKAELFVSNSQVRSLLRAYAVEFQNQIRDQGYNFSEINVYR | -0.551 |
| HMGPGFVGGSVLSGGNRGEGDPVANAQVFITDMDDNVVAFTKTDAEGNFDMTNLAYGDYKMYVDILNK | -0.0166 |
| HMLAEEDRRRAERPGLDGNAVMVHLGIGPGRHVGEALAFLLEVRRSEGDLAVAELKSRIDAWWADR | -2.59 |
| HMVTEIDYGAFIKMTEEGNIGEVKIEDNQIVFTDKENKAIYKTGIMPDSDLTQRLYDSGAVFA | 0.0785 |
| HMLQSGSDYLIEQVRMYTATGQREYMDNYFEELNTTRRRENALEYFAEHYGDNDAFTLLKSAMTTSQN | -0.428 |
| HMVIPATPTARRAKIAGLLADRSVRSQGELLTLLADAGIEVTQATLSRDLEALGAVKVRDGRGLVYAVPG | -0.0411 |
| HMSYPTAVTQTTLNVRTGPGTQYERLGAFVENTEVIVLTRQPEWIQVRGMSGDKAIIGWVSARYLQMNP | -0.457 |
| HMSEKLLTLNEISEKLRVSRHTVQAWVSPSSPNHRPEFSSLARHAGRKTVFLESDVDAWLAQRR | -0.839 |
